# Source: the nanobody polyreactivity screen of Harvey et al. (2022)
# Assay: yeast display, Sf9 membrane polyspecificity reagent, FACS + sequencing; frameworks hold sequencing errors
# In short: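 A nanobody's polyreactivity label depends on the gate it was sorted from. Yeast display cells were stained with 10% biotinylated, detergent-solubilized Sf9 membrane reagent for 1 hour at 4 °C, enriched on streptavidin microbeads and sorted by FACS. The low and high (top ~1%) gates were set on anti-HA fluorescence for expression and streptavidin fluorescence for reagent binding.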
row,Sequence,polyreactivity (PSR sort gate)
1,QVQLVESGGVLVQAGGSLRLSCAASGSTFHRSAMGWYRQAPGKERELVATINLNTGSTYADSVKGRFTISRDNAKNTVYLQMNSLKPEDTAVYYCAAYGRWPFTWYNYWGQGTQVTVSS,low polyreactivity
2,QVQLVESGGGLVQAGGSLRLSCAASGRTLRSNAMGWYRQAPGKERELVAAISSNGGSTYYADSVKGRFTISRDNAKNTVYLQMNSLKPEDTAVYYCAALSYYYSDRMDYWGQGTQVTVSS,low polyreactivity
3,QFQLVESGGGLVQAGGSLRLSCAASGFIFQRYAMGWYRQAPGKERELVAAINFSGGSTYYADSVKGRFTISRDNAKNTVYLQMNSLKPEDTAVYYCNTGNITQTKSIFDYWGQGSQVTVSS,high polyreactivity
4,QVQLVDSGGGLVQAGGSLRISCAASGSTFSINTMGTYRQAPGKERELVAAITTRGSSTYYADSVKGRFTISRDNAKNTVYLKMNSLKPEDTAVYYFNAPYRVTGGRYRWYDYWGQATQVTVSS,high polyreactivity
5,QVQLVESGGGLVQAGGSLRLSCAASGFIFNTMGWYRQAPGKERELVATISWSDGSTYYADSVKGRFTISRDNAKNTVYLQMNSLKPEDTAVYYCAADSRPWGSSMDSWGQGTQVTVSS,low polyreactivity
6,QVQLVESGGGLVQAGGSLRLSCDASGSIFSYYAMGWYRQAPGKERELVAAITYRGGSTFYADSVKGRFTLSRDNAKNTVYFQMNRLKPEDTAVYYCATRYYVDQRYQYKYDYWGQGTQVTVSS,high polyreactivity
7,QVQLVESGGGLVQAGGSLRLSCAASGRNFWDYAMGWYRQAPGKERELVAGISYSGGSTSYADSVKGRFTISRDNAKNTVYLQMNSLKPEDTAVYYCAAGPSGTFFRDYDYWGQGTQVTVSS,low polyreactivity
8,QVQLVESRGGLVQAGGSLRLSCAASGFTFDNYGMGWYSQAPGKERELVAAISKSGTSTYYADSGKGRFTITRDNAKNTVYLQMNSLNPEDTAVYYCSGALPGYGDYYYWGQGTQVTVSS,high polyreactivity
9,QVQLVESGGGLVQAGGSLRLSCAASGSTFYYYAMGWYRQAPGKERELVAAINYNGGSTHYADSVKGRFTISRDNAKNTVYLQMISLKPEDTAVYYCAAKYRLSYTHGYWGQGSQVTVSS,low polyreactivity
10,QVQLVESGGGLVQAGGSLRLSCAASGSIFYRYAMGWYRQAPGKERELVAAITQSTDSTYYADSVKGRFTISRDNAKNTVYLQMNSLKPEDSAVYYCDAYLVYYRPYAYGYWGQGTQVTVSS,low polyreactivity
11,QVQLVESGGGLVQAGGSLRLSCAASGITFLFYAMGWYIPAPGKEREYVAAISTRGGRTYYADSVKGRFTISRDNAKNTVYLQMNSLKPEDTAVYYCAADFYYRTVATVTSVARYDYWGQGTQVTVSS,high polyreactivity
12,QVQLVESGGGLVQAGGSLRLSCAASGRIFVINAMVWYRQAPGKERELVAGITSSGNTNYADSVKGRFTISRDNAKNTVYLQMNSLNPEDTAVYYCNAQVYLTWLTYWLYYPPNDYWGQGTQVTVSS,low polyreactivity
13,QVQLVESGGGLVQAGGSLRLSCAASGSTFARYAMGWYRQAPGKERELVAAISITGSTYYADSVKGRFTISRDNAKNTVYLQMNSLNPEDTAVYYCNVKSKYRYGYWGQGTQVTVSS,high polyreactivity
14,QVQLVETGGGLVQAGGSLRLSCAASGSTFVRYTMGWYRQAPGKERELVAAISQRDSRTYYADSVKGRFTISRDNAKNTVYLQMNSLKPEDTAVYYCAARSWWYRSATYNYWGQGTQVTVSS,high polyreactivity
15,QVQLVESGGGLVQAGGSLRLSCAASGSTFNIYGMGWYRQAPGKERELVARISSGGSTYADSVKGRFTISRDNAKNTVYLQMNSLKPEDTAVYYCAAAAARTYRRYRYEGYYYWGQGTQVTVSS,high polyreactivity
16,QVQLGESGGGLVQAGGSLRLSCAASGSIFRGYAMGWYRQAPGKGRELVAAISWSGASTYYADSVKGRFTISLDNAKNTVYLQMNSLKPEDTAVYYCAAVQWTGYPFDYWGQGTQVTVSS,high polyreactivity
17,QVQLVESGGGLVQAGGSLRLSWAASGSTFQSYAMGLSRQAPGKERELVAAISFSGGSTYYADSVKGRFTISRDNAKNTVYLQMHSLKPEDTAVYYCAADVAYVEYDYWGQGTQVTVSS,low polyreactivity
18,QFQLVESGGGLVQAGGSLRLSCAASGSTFVWNAMGWYRPAPGKERELVAAITNDGRTNYADSVKGRFTISRDNAKNTVYLKMNSLKPEDTAVYYCNADGYNSYWWNYYWGQGTQVTVSS,low polyreactivity
19,QVQLVESGGGLVQAGGSLRLSCASSGLIYHRNAMGWYRQAPGKERELVAAITKTGGGTYYADSVKGRFTISRDNAKNTVYLQMNSLKPEDTAVYYCAADTQRTFYYWGQGTQVTVSS,low polyreactivity
20,QVQLVESGRGLVQAGGSLRLSCAASGSTFSRYTMGWYRQAPGKERELVAAISYRGGSTYYADSVKGRFTISRDNAKNTVYLQMNSLKPEDTAVYYRAAEYRVEGSDYDYWGQGTQVTVSS,low polyreactivity
21,QDQLVESGGGLVQARVSLRLSCAASGLIFRRYAMGWYRQAPGKEREFVAAITVSGGRTYYADSVKGRFTISRDNAKNTVYLQMNSLKQEDTAVYYCDAHGYGDNRNKYFYWGLGTQVTVSS,high polyreactivity

row,Sequence,polyreactivity (PSR sort gate)
1,QVQLQESGGGLVQAGGSLRLSCAASGTISYAPHMGWYRQAPGKERELVAGITIVGTTYYADSVKGRFTISRDNAKNTVYLQMNSLSPGDTAVYYCAAHSEQYTPFYYWGQGTQVTVSS,low polyreactivity
2,QVQLVESGGGLVQAGRSLRLSCAASGFTFIRYDMGWYRQALGKETELVATITRRGGSTYYADSVKGRFTISRDNAKNTVYLQMNSLKPEDTAVYYCNRDYVTYGKYYYWGQGTQVTVSS,high polyreactivity
3,QVQLVESGGGLVQAGGSLRLSCAASGRTFTVYTMGWYRQAPGKERELVAVISTGGRTYYADSVKGRFTISRDNAKNTVYLQMNSLNPEDTAVYYCAAKFTREYYWGQGTQVTVSS,high polyreactivity
4,QVQLVESGGGLVQAGGSLRLSCAASGSTFSHNAMGWYRQAPGKERELVAAISWSGGRTYADSVKGRFTISRDNAKNTVYLQMNSVKPDDTAVYYCNKVSYPSTSSSWFDYWGQGTQVTVSS,low polyreactivity
5,QVQLVESGGGLVQAGGSLRLSCAASGIIFRYYAMGWYRQAPGKERELVAAITVNGGRTYYADSVKGRFTISRDNAKNNVYLQMNSLKPEVTAVYYCAAYPHRYRVTPYPSVVSLDNYWGQGTQVTVSS,low polyreactivity
6,QVQLVESGGGLVQAGGSLRLSFAASGFIFWNYPMGWYRQAPGKERELVAAISKRGGSTYYADSVKGRFTISRDNAKHNVYLQMNSLKPEDTAVYYCNAGRTYTALNGDYWGQGTQVTVSS,high polyreactivity
7,QVQHVESGGGLVQAGGSLRLSCAASGFTFYSYAMGWYRQSPGKERELVANITIGGSTYADSVKGRFTISRENAKNTVYLQMNSLKPEDTAVYYCAKQYGGRYGYWGQGTQVTVSS,low polyreactivity
8,QVQLVESGGGLVQAGGSLRLSCAASGIIFRGYVMGWYRQAPGKERELVAAISTSGGRTSYADSVKGRFTISRDYAKNTVYLQMNSLKPEDTAVYYCAARPLYSYSQWGYGYWGQVTQVTVSS,high polyreactivity
9,QVQLVESGGGLVQAGGSLRLSCAASGFSFLAYAMGWYRQAPGKERELVAAINSSDGTTHYADSVKGRFTISRDNAKNTVYLQMNSLKPEDTAVYYCAVSQVRTGEGYHYWGQGTQVTVSS,low polyreactivity
10,QVQLVESGGGIVQAGGSLRLSCAASGNIFHKNAMGWYRQAPGKERELVASISWSGGSTYYADSVKGRFTISRDNAKNTVYLQMNSLKPEDTAVYYCATDAFGYPGNRYALNDYWGQGTQVTVSS,low polyreactivity
11,QVQLVESGGGLVQAGGSLRLSCAASGRIFVSYAMGWYRQAPGKERELVAAINWNGDRTYYADSVKGRFTISRDNATNTVYLQMNSLKPEDTAVYYCNTDSILLPYDYWGQGTQVTVSS,low polyreactivity
12,QVQLVESGGGLVQAGGSLRLSCAASGSTFYSYAMGWYRPAPGKERELVAAITTSGGSTYYADSVKGRFTISRDNAKNTVYLQMNSLKPEDTAVYYCNAYFIYEGGWYYKAQYDYWGQGTQVTVSS,low polyreactivity
13,QVQLVESGGGLVQAGGSLRLSCAASGLTFYYYAMGWYRQAPGKERELVATISGSGGNTYYADSVKGRFTISRDNAKNTVFLQMNSLKPEDTAVYYCNARYRWWLYYSRDRVYYWGQGTQVTVSS,high polyreactivity
14,QVQLVESGGGLVQAGGSLRLSCAASGSIFINNTMGWYRQAPGKERELVAAISITGGSTYYADSVKGRFTISRDNAKNTVYLQMNSLKPEDTAVYYCAADPLQLYDYNYWGQGTQVTVSS,low polyreactivity
15,QVQLVESGGGLVQAGGSLRLSSAASGSIFELNAMGWYRQAPGKERELVASISFRGTSTYYADSVKGRFTISRDYAKNTVYLKMNSLKPDDNAVYYCAADTTFPFSYWGQGTQVTVSS,low polyreactivity
16,QVQLVESGGGLVQAGGSLSLICAASGRIYYRYHMGWYRQAPGKERELVATISRSGGSTNYADSVKGRFTISRDNAKNTVYLQMNSLNPEYTAVYYCNALYLSTRSGDYWGQGTQVTVSS,high polyreactivity
17,QVQLVESGGGLVQAGGSLRLSCAASGGTFYTNVMGGYTQAPGKERELVAAITRSGGSTHYADSVKGRFTISRDNAKNTFYLQMNSLKPEDTEVYYCALGSPYYDGMDYWGQGTQVTVSS,low polyreactivity
18,QVQLVESGGGLVQAGGSLRLSCAASGRIFAYYAMGWYRQAPGKDRELVATIRSGGDTNYADSVKGRFTISRDNAKNTVDIQMNSLKTEDTAVYYCNALYYWWYPHEYNYWGQGTQVTVSS,low polyreactivity
19,QVQLVESGGGLVQAGGSLRLSCAASGSIFADYAMGWYRQAPGKERELVAAITGSGGRTYYADSVKGRFTISRDNAKNTVYLQMNSLKPEDTAVYYCAAEGTTWYYDMDYWGQGTQVTVSS,low polyreactivity
20,QVQLVESGGGLVQAGGSLRLSCAASGGTLRGYAMGWYRQAPGKERELVASITYTSGSTYYADSVKGRFTISRDNAKNTVYLQINSLKPEDTAVYYCAAVARTVPSYSYNYWGQGTKVTVSS,high polyreactivity
